Tests used:
[1] = biological target: Spike protein on live SARS-CoV-2 Victoria strain (SARS-CoV-2 (Victoria), UniProt P0DTC2 14-1273); assay: cell-based or functional assay
[2] = biological target: SARS-CoV-2 receptor-binding domain fused to hIgG1 Fc (SARS-CoV-2 (Wuhan/Victoria), UniProt P0DTC2 330-532); assay: SPR, trimer analyte, RBD ligand
[3] = biological target: T1, SARS-CoV-2 receptor-binding domain (amino acids 330-532), prototypical Wuhan/Victoria (SARS-CoV-2 (Wuhan/Victoria), UniProt P0DTC2 330-532); assay: SPR, VHH analyte over immobilised RBD
[4] = biological target: T1, SARS-CoV-2 receptor-binding domain …; assay: SPR, VHH analyte, biotinylated RBD ligand

Row | Binder | ND 50 MN assay, live virus [1] [nM] | Kd [2] [nM] | T1/2 [2] [h] | koff [2] [s⁻¹] | kon [2] [M⁻¹ s⁻¹] | Kd [3] [nM] | T1/2 [3] [h] | Kd [4] [nM] | T1/2 [4] [h]
1 | H3 trimer (VHH) QVQLVESGGGLVKTGGSLRLSCAASGRTFSTYSMGWFRQAPGKEREFVAGMRWTGSSTFYSDSVKGRFTVSRNNAKDTVYLHMNSLKPEDTAVYYCAITTIVRAYYTEYTEADFGSWGQGTQVTVSSGAVLAPQVQLVESGGGLVKTGGSLRLSCAASGRTFSTYSMGWFRQAPGKEREFVAGMRWTGSSTFYSDSVKGRFTVSRNNAKDTVYLHMNSLKPEDTAVYYCAITTIVRAYYTEYTEADFGSWGQGTQVTVSSGSGSGSQVQLVESGGGLVKTGGSLRLSCAASGRTFSTYSMGWFRQAPGKEREFVAGMRWTGSSTFYSDSVKGRFTVSRNNAKDTVYLHMNSLKPEDTAVYYCAITTIVRAYYTEYTEADFGSWGQGTQVTVSS | 0.4 | 0.0003 | 5.82 | 3.3e-05 | 1.2e+08 | – | – | – | –
2 | H3 (VHH) VHH: QVQLVESGGGLVKTGGSLRLSCAASGRTFSTYSMGWFRQAPGKEREFVAGMRWTGSSTFYSDSVKGRFTVSRNNAKDTVYLHMNSLKPEDTAVYYCAITTIVRAYYTEYTEADFGSWGQGTQVTVSS | – | – | – | – | – | 0.025 | 0.583 | 0.025 | 0.583
3 | C5 trimer (VHH, also called trimeric C5 nanobody; C5-6GS-C5-6GS-C5) QVQLVESGGGSVQAGGSLTLSCVASGVTLGRHAIGWFRQAPGKERERVSCIRTFDGITSYVESTKGRFTISSNNAMNTVYLQMNSLKPEDTAVYFCALGVTAACSDNPYFWGQGTQVTVSSGSGSGSQVQLVESGGGSVQAGGSLTLSCVASGVTLGRHAIGWFRQAPGKERERVSCIRTFDGITSYVESTKGRFTISSNNAMNTVYLQMNSLKPEDTAVYFCALGVTAACSDNPYFWGQGTQVTVSSGSGSGSQVQLVESGGGSVQAGGSLTLSCVASGVTLGRHAIGWFRQAPGKERERVSCIRTFDGITSYVESTKGRFTISSNNAMNTVYLQMNSLKPEDTAVYFCALGVTAACSDNPYFWGQGTQVTVSS | 0.02 | 0.018 | 1.53 | – | – | – | – | – | –
4 | F2 (VHH, also called VHH F2) VHH: QVQLVESGGGLVQAGGSLRLACIASGRTFHSYVMAWFRQAPGKEREFVAAISWSSTPTYYGESVKGRFTISRDNAKNTVYLQMNRLKPEDTAVYFCAADRGESYYYTRPTEYEFWGQGTQVTVSS | – | – | – | – | – | 0.04 | – | 0.04 | –
5 | C1 (VHH) VHH: QVQLVESGGGLVQPGGSLRLSCAASGFTNDFYSIAWFRQAPGKEREGVSWLSVSDNTPTYVDSVKDRFTISRHNANNTVYLQMNMLKPEDTAIYYCAAGRFAGRDTWPSSYDYWGQGTQVTVSS | – | – | – | – | – | 0.615 | – | 0.615 | –
6 | A8 trimer (bispecific antibody) QVQLVESGGGLVQAGGSLRLSCAASGGTFSTAAMGWFRQAPGEERECVASIGWRGVRTWYADSVKGRFTISRDNPQNTVYLQMNNLKSGDTAVYYCAASVGNYGLPWAHFEYDFWGQGIQVTVSSGSGSGSQVQLVESGGGLVQAGGSLRLSCAASGGTFSTAAMGWFRQAPGEERECVASIGWRGVRTWYADSVKGRFTISRDNPQNTVYLQMNNLKSGDTAVYYCAASVGNYGLPWAHFEYDFWGQGIQVTVSSGSGSGSQVQLVESGGGLVQAGGSLRLSCAASGGTFSTAAMGWFRQAPGEERECVASIGWRGVRTWYADSVKGRFTISRDNPQNTVYLQMNNLKSGDTAVYYCAASVGNYGLPWAHFEYDFWGQGTQVTVSSKHHHHHH | 0.09 | 0.005 | 4.63 | – | – | – | – | – | –

Reference: patent US20230374116A1 (ROSALIND FRANKLIN INSTITUTE, published 2023)
